In patent publication US20090291890A1 (published 2009):

B1: S52A/S60A/Q286R/H373F-FVIIa (enzyme)
chain: ANAFLEELRPGSLERECKEEQCSFEEAREIFKDAERTKLFWISYSDGDQCAASPCQNGGACKDQLQSYICFCLPAFEGRNCETHKDDQLICVNENGGCEQYCSDHTGTKRSCRCHEGYSLLADGVSCTPTVEYPCGKIPILEKRNASKPQGRIVGGKVCPKGECPWQVLLLVNGAQLCGGTLINTIWVVSAAHCFDKIKNWRNLIAVLGEHDLSEHDGDEQSRRVAQVIIPSTYVPGTTNHDIALLRLHQPVVLTDHVVPLCLPERTFSERTLAFVRFSLVSGWGRLLDRGATALELMVLNVPRLMTQDCLQQSRKVGDSPNITEYMFCAGYSDGSKDSCKGDSGGPHATHYRGTWYLTGIVSWGQGCATVGFFGVYTRVSQYIEWLQKLMRSEPRPGVLLRAPFP
B2: Q286R/M298Q/H373F-FVIIa (enzyme)
chain: ANAFLEELRPGSLERECKEEQCSFEEAREIFKDAERTKLFWISYSDGDQCASSPCQNGGSCKDQLQSYICFCLPAFEGRNCETHKDDQLICVNENGGCEQYCSDHTGTKRSCRCHEGYSLLADGVSCTPTVEYPCGKIPILEKRNASKPQGRIVGGKVCPKGECPWQVLLLVNGAQLCGGTLINTIWVVSAAHCFDKIKNWRNLIAVLGEHDLSEHDGDEQSRRVAQVIIPSTYVPGTTNHDIALLRLHQPVVLTDHVVPLCLPERTFSERTLAFVRFSLVSGWGRLLDRGATALELQVLNVPRLMTQDCLQQSRKVGDSPNITEYMFCAGYSDGSKDSCKGDSGGPHATHYRGTWYLTGIVSWGQGCATVGFFGVYTRVSQYIEWLQKLMRSEPRPGVLLRAPFP
B3: M298Q/H373F-FVIIa (enzyme)
chain: ANAFLEELRPGSLERECKEEQCSFEEAREIFKDAERTKLFWISYSDGDQCASSPCQNGGSCKDQLQSYICFCLPAFEGRNCETHKDDQLICVNENGGCEQYCSDHTGTKRSCRCHEGYSLLADGVSCTPTVEYPCGKIPILEKRNASKPQGRIVGGKVCPKGECPWQVLLLVNGAQLCGGTLINTIWVVSAAHCFDKIKNWRNLIAVLGEHDLSEHDGDEQSRRVAQVIIPSTYVPGTTNHDIALLRLHQPVVLTDHVVPLCLPERTFSERTLAFVRFSLVSGWGQLLDRGATALELQVLNVPRLMTQDCLQQSRKVGDSPNITEYMFCAGYSDGSKDSCKGDSGGPHATHYRGTWYLTGIVSWGQGCATVGFFGVYTRVSQYIEWLQKLMRSEPRPGVLLRAPFP
B4: S222A/T239V-FVIIa (enzyme)
chain: ANAFLEELRPGSLERECKEEQCSFEEAREIFKDAERTKLFWISYSDGDQCASSPCQNGGSCKDQLQSYICFCLPAFEGRNCETHKDDQLICVNENGGCEQYCSDHTGTKRSCRCHEGYSLLADGVSCTPTVEYPCGKIPILEKRNASKPQGRIVGGKVCPKGECPWQVLLLVNGAQLCGGTLINTIWVVSAAHCFDKIKNWRNLIAVLGEHDLSEHDGDEQARRVAQVIIPSTYVPGTVNHDIALLRLHQPVVLTDHVVPLCLPERTFSERTLAFVRFSLVSGWGQLLDRGATALELMVLNVPRLMTQDCLQQSRKVGDSPNITEYMFCAGYSDGSKDSCKGDSGGPHATHYRGTWYLTGIVSWGQGCATVGHFGVYTRVSQYIEWLQKLMRSEPRPGVLLRAPFP
B5: T239V/Q286R/H373F-FVIIa (enzyme)
chain: ANAFLEELRPGSLERECKEEQCSFEEAREIFKDAERTKLFWISYSDGDQCASSPCQNGGSCKDQLQSYICFCLPAFEGRNCETHKDDQLICVNENGGCEQYCSDHTGTKRSCRCHEGYSLLADGVSCTPTVEYPCGKIPILEKRNASKPQGRIVGGKVCPKGECPWQVLLLVNGAQLCGGTLINTIWVVSAAHCFDKIKNWRNLIAVLGEHDLSEHDGDEQSRRVAQVIIPSTYVPGTVNHDIALLRLHQPVVLTDHVVPLCLPERTFSERTLAFVRFSLVSGWGRLLDRGATALELMVLNVPRLMTQDCLQQSRKVGDSPNITEYMFCAGYSDGSKDSCKGDSGGPHATHYRGTWYLTGIVSWGQGCATVGFFGVYTRVSQYIEWLQKLMRSEPRPGVLLRAPFP
B6: T239V/Q286R/M298Q/H373F-FVIIa (enzyme)
chain: ANAFLEELRPGSLERECKEEQCSFEEAREIFKDAERTKLFWISYSDGDQCASSPCQNGGSCKDQLQSYICFCLPAFEGRNCETHKDDQLICVNENGGCEQYCSDHTGTKRSCRCHEGYSLLADGVSCTPTVEYPCGKIPILEKRNASKPQGRIVGGKVCPKGECPWQVLLLVNGAQLCGGTLINTIWVVSAAHCFDKIKNWRNLIAVLGEHDLSEHDGDEQSRRVAQVIIPSTYVPGTVNHDIALLRLHQPVVLTDHVVPLCLPERTFSERTLAFVRFSLVSGWGRLLDRGATALELQVLNVPRLMTQDCLQQSRKVGDSPNITEYMFCAGYSDGSKDSCKGDSGGPHATHYRGTWYLTGIVSWGQGCATVGFFGVYTRVSQYIEWLQKLMRSEPRPGVLLRAPFP
B7: V158D/T239I/E296V/M298Q-FVIIa (enzyme)
chain: ANAFLEELRPGSLERECKEEQCSFEEAREIFKDAERTKLFWISYSDGDQCASSPCQNGGSCKDQLQSYICFCLPAFEGRNCETHKDDQLICVNENGGCEQYCSDHTGTKRSCRCHEGYSLLADGVSCTPTVEYPCGKIPILEKRNASKPQGRIVGGKDCPKGECPWQVLLLVNGAQLCGGTLINTIWVVSAAHCFDKIKNWRNLIAVLGEHDLSEHDGDEQSRRVAQVIIPSTYVPGTINHDIALLRLHQPVVLTDHVVPLCLPERTFSERTLAFVRFSLVSGWGQLLDRGATALVLQVLNVPRLMTQDCLQQSRKVGDSPNITEYMFCAGYSDGSKDSCKGDSGGPHATHYRGTWYLTGIVSWGQGCATVGHFGVYTRVSQYIEWLQKLMRSEPRPGVLLRAPFP
B8: T239I/Q286R-FVIIa (enzyme)
chain: ANAFLEELRPGSLERECKEEQCSFEEAREIFKDAERTKLFWISYSDGDQCASSPCQNGGSCKDQLQSYICFCLPAFEGRNCETHKDDQLICVNENGGCEQYCSDHTGTKRSCRCHEGYSLLADGVSCTPTVEYPCGKIPILEKRNASKPQGRIVGGKVCPKGECPWQVLLLVNGAQLCGGTLINTIWVVSAAHCFDKIKNWRNLIAVLGEHDLSEHDGDEQSRRVAQVIIPSTYVPGTINHDIALLRLHQPVVLTDHVVPLCLPERTFSERTLAFVRFSLVSGWGRLLDRGATALELMVLNVPRLMTQDCLQQSRKVGDSPNITEYMFCAGYSDGSKDSCKGDSGGPHATHYRGTWYLTGIVSWGQGCATVGHFGVYTRVSQYIEWLQKLMRSEPRPGVLLRAPFP
B9: S222A/T239I-FVIIa (enzyme)
chain: ANAFLEELRPGSLERECKEEQCSFEEAREIFKDAERTKLFWISYSDGDQCASSPCQNGGSCKDQLQSYICFCLPAFEGRNCETHKDDQLICVNENGGCEQYCSDHTGTKRSCRCHEGYSLLADGVSCTPTVEYPCGKIPILEKRNASKPQGRIVGGKVCPKGECPWQVLLLVNGAQLCGGTLINTIWVVSAAHCFDKIKNWRNLIAVLGEHDLSEHDGDEQARRVAQVIIPSTYVPGTINHDIALLRLHQPVVLTDHVVPLCLPERTFSERTLAFVRFSLVSGWGQLLDRGATALELMVLNVPRLMTQDCLQQSRKVGDSPNITEYMFCAGYSDGSKDSCKGDSGGPHATHYRGTWYLTGIVSWGQGCATVGHFGVYTRVSQYIEWLQKLMRSEPRPGVLLRAPFP
B10: T239I/Q286R/M298Q-FVIIa (enzyme)
chain: ANAFLEELRPGSLERECKEEQCSFEEAREIFKDAERTKLFWISYSDGDQCASSPCQNGGSCKDQLQSYICFCLPAFEGRNCETHKDDQLICVNENGGCEQYCSDHTGTKRSCRCHEGYSLLADGVSCTPTVEYPCGKIPILEKRNASKPQGRIVGGKVCPKGECPWQVLLLVNGAQLCGGTLINTIWVVSAAHCFDKIKNWRNLIAVLGEHDLSEHDGDEQSRRVAQVIIPSTYVPGTINHDIALLRLHQPVVLTDHVVPLCLPERTFSERTLAFVRFSLVSGWGRLLDRGATALELQVLNVPRLMTQDCLQQSRKVGDSPNITEYMFCAGYSDGSKDSCKGDSGGPHATHYRGTWYLTGIVSWGQGCATVGHFGVYTRVSQYIEWLQKLMRSEPRPGVLLRAPFP
B11: S222A/T239I/H257A/Q286R/M298Q-FVIIa (enzyme)
chain: ANAFLEELRPGSLERECKEEQCSFEEAREIFKDAERTKLFWISYSDGDQCASSPCQNGGSCKDQLQSYICFCLPAFEGRNCETHKDDQLICVNENGGCEQYCSDHTGTKRSCRCHEGYSLLADGVSCTPTVEYPCGKIPILEKRNASKPQGRIVGGKVCPKGECPWQVLLLVNGAQLCGGTLINTIWVVSAAHCFDKIKNWRNLIAVLGEHDLSEHDGDEQARRVAQVIIPSTYVPGTINHDIALLRLHQPVVLTDAVVPLCLPERTFSERTLAFVRFSLVSGWGRLLDRGATALELQVLNVPRLMTQDCLQQSRKVGDSPNITEYMFCAGYSDGSKDSCKGDSGGPHATHYRGTWYLTGIVSWGQGCATVGHFGVYTRVSQYIEWLQKLMRSEPRPGVLLRAPFP
B12: T239I/Q286R/H373F-FVIIa (enzyme)
chain: ANAFLEELRPGSLERECKEEQCSFEEAREIFKDAERTKLFWISYSDGDQCASSPCQNGGSCKDQLQSYICFCLPAFEGRNCETHKDDQLICVNENGGCEQYCSDHTGTKRSCRCHEGYSLLADGVSCTPTVEYPCGKIPILEKRNASKPQGRIVGGKVCPKGECPWQVLLLVNGAQLCGGTLINTIWVVSAAHCFDKIKNWRNLIAVLGEHDLSEHDGDEQSRRVAQVIIPSTYVPGTINHDIALLRLHQPVVLTDHVVPLCLPERTFSERTLAFVRFSLVSGWGRLLDRGATALELMVLNVPRLMTQDCLQQSRKVGDSPNITEYMFCAGYSDGSKDSCKGDSGGPHATHYRGTWYLTGIVSWGQGCATVGFFGVYTRVSQYIEWLQKLMRSEPRPGVLLRAPFP

Key:
Mesyl-dFPR-ACC = target: T1, Mesyl-dFPR-ACC
T1 sequence (peptide, N-terminal mesyl; D-Phe at position 1 (dF); C-terminal ACC fluorophore): FPR

[1] = target: Factor X (Homo sapiens (Human)) (UniProt P00742)
Factor X (Homo sapiens (Human)), sequence (P00742 41-488 limits assumed): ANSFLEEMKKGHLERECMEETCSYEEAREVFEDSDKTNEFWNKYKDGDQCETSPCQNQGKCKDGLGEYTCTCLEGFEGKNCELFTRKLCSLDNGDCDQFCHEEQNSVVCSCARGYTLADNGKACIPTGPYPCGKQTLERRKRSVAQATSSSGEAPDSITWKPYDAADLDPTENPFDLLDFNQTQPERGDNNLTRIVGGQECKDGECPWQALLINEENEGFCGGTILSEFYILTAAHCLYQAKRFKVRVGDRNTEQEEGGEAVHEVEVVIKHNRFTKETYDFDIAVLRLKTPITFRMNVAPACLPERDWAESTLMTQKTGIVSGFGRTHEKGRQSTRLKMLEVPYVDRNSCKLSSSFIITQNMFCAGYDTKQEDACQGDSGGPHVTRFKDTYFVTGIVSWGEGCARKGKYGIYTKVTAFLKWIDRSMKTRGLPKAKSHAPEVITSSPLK

Binder | Activity (µmol/sec/µmol), specific activity for mesyl-dFPR-ACC (µmol/sec/µmol) (Mesyl-dFPR-ACC) | kcat/KM (M^-1s^-1), TF-dependent assay [1] [M⁻¹ s⁻¹] | kcat/KM, TF-independent assay [1] [M⁻¹ s⁻¹]
B1 | 3.14 | 9.44e+07 | 30.1
B2 | 4.59 | 1.36e+08 | 115
B3 | 4 | 7.21e+07 | 96.4
B4 | 1.91 | 7.49e+07 | 3
B5 | 1.53 | 1.06e+08 | 12.2
B6 | 3.07 | 1.7e+08 | 40.7
B7 | 2.24 | 1.45e+08 | 216
B8 | 0.88 | 5.79e+07 | 4.6
B9 | 1.36 | 3.05e+07 | 1.7
B10 | 1.37 | 1.13e+08 | 11.3
B11 | 1.41 | 1.14e+08 | 51.6
B12 | 1.24 | 6.18e+07 | 
